Reference: US20090281024A1 (RAPTOR PHARMACEUTICALS, published 2009)

Experiments:
Experiment in all cases: solid-phase binding assay: LRP2 CR89 coated on the plate, d3 ligand in solution, anti-RAP detection, absorbance
[1] = molecular target: T1, RAP d3 E217K (human, UniProt P30533 235-353)
T1 construct: range 201-319 (mature RAP numbering); Forward mutant of m1; same construct; also called RAP E217K; not shown: N-terminal hexahistidine and S-peptide tags of pET30(+)a
T1 sequence (looked up): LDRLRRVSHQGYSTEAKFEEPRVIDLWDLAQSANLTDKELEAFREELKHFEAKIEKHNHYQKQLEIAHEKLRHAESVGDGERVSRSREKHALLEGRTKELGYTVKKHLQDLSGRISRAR
Procedure: (§1) Solid phase binding assays—Purified, refolded CR protein (1 μg) was bound to Nunc Maxisorp™ 96-well plates in TBS pH 8 supplemented with 5 mM CaCl₂ (TBSC) overnight at 4° C. Wells were washed with TBSC and then blocked with TBSC containing 2% bovine serum albumin (BSA). RAP ligands were then incubated with the immobilized receptor at a range of concentrations for 2 hours in the above blocking buffer supplemented with 0.05% Tween-20 at room temperature. Control wells contained no added ligand. As an additional control, to determine whether the absence of calcium affected binding, 10 mM EGTA was included in the incubation medium for some samples. Wells were washed with TBSTC and bound ligands detected with polyclonal anti-RAP (BP41/42, 1:1,000, BioMarin). Excess primary antibody was removed and wells washed before incubation with the secondary antibody, HRP-conjugated goat anti rabbit IgG (Bio-Rad). After washing, TMB substrate solutions (Bio-Rad) were added to detect HRP. Color development was stopped with 1N HCl. Absorption at 450 nm was measured with a microplate spectrophotometer (Molecular Devices). Data were plotted and Kd values derived by non-linear regression with the assumption of single-site binding (GraphPad Prism).
(§2) Next, the binding of RAP d3 and MegaRAP1 d3 proteins to LRP1 CR3-5 and LRP2 CR89 was assessed. […] In all cases, 10 mM EGTA prevented binding of both RAP d3 and MegaRAP1 d3 to CR proteins. Since calcium was the only divalent metal ion present in the binding buffer, this observation is consistent with both RAP d3 and MegaRAP1 d3 binding to calcium-loaded CR pairs. […] Therefore, wild-type RAP d3 and MegaRAP1 d3 have inverted binding preferences for these two receptor fragments.

[2] = molecular target: T2, RAP d3 K270E (human, UniProt P30533 235-353)
T2 construct: range 201-319 (mature RAP numbering); Forward mutant of m1; same construct; also called RAP K270E; not shown: N-terminal hexahistidine and S-peptide tags of pET30(+)a
T2 sequence (looked up): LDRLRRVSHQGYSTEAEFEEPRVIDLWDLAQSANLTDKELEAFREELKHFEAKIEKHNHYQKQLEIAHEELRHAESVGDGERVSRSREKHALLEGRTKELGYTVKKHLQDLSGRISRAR
Procedure: as §1, §2

[3] = molecular target: T3, RAP d3 E251K (human, UniProt P30533 235-353)
T3 construct: range 201-319 (mature RAP numbering); Forward mutant of m1; same construct; also called RAP E251K; not shown: N-terminal hexahistidine and S-peptide tags of pET30(+)a
T3 sequence (looked up): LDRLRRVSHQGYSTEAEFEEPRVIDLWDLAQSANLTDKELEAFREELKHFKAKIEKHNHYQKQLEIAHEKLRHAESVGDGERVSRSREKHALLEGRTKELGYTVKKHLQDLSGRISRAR
Procedure: as §1, §2

[4] = molecular target: T4, RAP d3 K256A, K270E (human, UniProt P30533 235-353)
T4 construct: range 201-319 (mature RAP numbering); Forward mutant of m1; same construct; also called RAP K256A, K270E; not shown: N-terminal hexahistidine and S-peptide tags of pET30(+)a
T4 sequence (looked up): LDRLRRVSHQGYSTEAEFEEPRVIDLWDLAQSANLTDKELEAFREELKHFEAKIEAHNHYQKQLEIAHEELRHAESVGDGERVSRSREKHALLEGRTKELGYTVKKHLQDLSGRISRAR
Procedure: as §1, §2

binding result [1]: no binding (tested: 100 nM) | binding result [2]: no binding (tested: 100 nM) | binding result [3]: no binding (tested: 100 nM) | binding result [4]: no binding (tested: 100 nM)
B1: LRP2 CR89 (receptor)
chain: not shown
notes: domain: CR89; Limits of the fragment are set only by the primers LRP2CR8F and LRP2CR9R; also called YVWR; L2 CR89; not shown: N-terminal hexahistidine and S-peptide tags of pET30(+)a
